Test results as given in US20250382354A1.

Target: JL14 HR2 peptide (JL14)
Test: peptide ELISA

Row | Binder | EC50 [µg/mL]
1 | hr2.020 (antibody, V domains shown) VH: EVQLVQSGAEVKKPGESLKISCKGSGYRFASHWIGWVRQMPGKGLQWMGIIYPGDSDTKYSPSFQGQVTISADKSINTVYLHWTSLKASDTAVYYCARRPPHLDGGDSPIRFDHWGQGTLVTVSS VL: QSVLTQPPSASGTPGQRVTISCSGSRSNIGSNDVYWYQQFPGTAPKLLIYRNNQRPSGVPDRFSGSKSGTSASLAISGLRSEDEADYYCATWDDRLTGVFGGGTKLTVV | 0.0351
2 | CV3-25 (antibody) chain 1: QVQLVESGAEVKKPGESLKISCKGSGYTFTRYWIGWVRQMPGKGLEWMGIIYPGDSDTRYSPSFQGHVTISADKSISTAYLQWNSLKASDTAMYYCARLPQYCSNGVCQRWFDPWGQGTLVTVSS chain 2: EIVLTQSPSSVSASVGDRVTITCRASQGISSWLAWYQQKPGKAPKLLIYAASSLQSGVPSRFSGSGSGTDFTLTISSLQPEDFATYYCQQGNSFPYTFGQGTNLEIK | 0.0176
